One substance from publication PMC3478262 can be followed below.

As usually defined, the stoichiometry N is a count of units in the complex or per binding partner.

In the experiment the target is Rv0132c–Δ38 protein (Mycobacterium tuberculosis H37Rv) (UniProt P96809). The experiment is described as follows: SEC.

“Rv0132c–Δ38 protein (from UniProt P96809 39-360) (domain or fragment)” came in with a stoichiometry N of 2.
